According to article PMC4415891, “Adamtsl2 deletion results in bronchial fibrillin microfibril accumulation and bronchial epithelial dysplasia – a novel mouse model providing insights into geleophysic dysplasia” (Disease Models & Mechanisms, 2015):

T1: ADAMTSL2 (a disintegrin and metalloproteinase with thrombospondin motifs-like 2), recombinant (human, UniProt Q86TH1 23-951)
T1 construct: ADAMTSL2, secreted glycoprotein; source: recombinant, purified as described previously (Koo et al., 2007)
T1 sequence (looked up): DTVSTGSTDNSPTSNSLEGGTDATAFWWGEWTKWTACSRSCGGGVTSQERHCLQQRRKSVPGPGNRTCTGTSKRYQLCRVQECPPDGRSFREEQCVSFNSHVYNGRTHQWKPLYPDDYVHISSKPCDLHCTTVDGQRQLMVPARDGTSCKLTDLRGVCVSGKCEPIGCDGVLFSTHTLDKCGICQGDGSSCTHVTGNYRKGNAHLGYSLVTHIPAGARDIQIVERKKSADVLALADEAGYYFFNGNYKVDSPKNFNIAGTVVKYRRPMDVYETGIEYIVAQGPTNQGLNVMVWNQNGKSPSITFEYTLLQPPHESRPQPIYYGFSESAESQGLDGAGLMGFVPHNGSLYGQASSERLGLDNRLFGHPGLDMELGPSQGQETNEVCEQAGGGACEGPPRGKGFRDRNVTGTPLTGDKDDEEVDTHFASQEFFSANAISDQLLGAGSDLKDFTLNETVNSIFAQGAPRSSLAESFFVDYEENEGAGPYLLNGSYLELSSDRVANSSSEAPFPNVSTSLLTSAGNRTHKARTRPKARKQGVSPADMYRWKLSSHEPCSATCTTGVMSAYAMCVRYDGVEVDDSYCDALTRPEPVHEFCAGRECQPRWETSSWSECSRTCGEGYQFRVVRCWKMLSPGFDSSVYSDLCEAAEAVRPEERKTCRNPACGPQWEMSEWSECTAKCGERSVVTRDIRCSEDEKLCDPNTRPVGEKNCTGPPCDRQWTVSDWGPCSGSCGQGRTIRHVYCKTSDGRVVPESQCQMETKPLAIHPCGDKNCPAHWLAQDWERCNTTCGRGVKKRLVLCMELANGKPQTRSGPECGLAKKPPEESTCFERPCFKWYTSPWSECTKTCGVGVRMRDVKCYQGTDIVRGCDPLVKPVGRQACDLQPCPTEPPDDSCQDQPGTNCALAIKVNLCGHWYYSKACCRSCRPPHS


Biological target: T1, ADAMTSL2 (a disintegrin and …)
Assay: SPR; ADAMTSL2 immobilised by amine coupling on a CM5 chip (about 1500 RU), fibrillin fragments injected; BIAcore 3000; 25°C; 10 mM HEPES pH 7.4, 150 mM NaCl, 2 mM CaCl2, 0.005% surfactant P20; 20 ul/min; n=2
Details: both partners purified

Binder	Kd
C-terminal half of fibrillin-1 (FBN1), recombinant fragment (domain or fragment) not shown	8 nM
N-terminal half of fibrillin-1 (FBN1), recombinant fragment (domain or fragment) not shown	14.3 nM
